Sequences and labels used below:
B1: Fahd1_IPI:IPI00468850.1 (other, mouse, UniProt Q8R0F8 25-221, looked up)
chain: ADHVKEMRSTVLSEPVLFLKPSTAYAPEGSPVLMPAYCRNLHHEVELGVLLGKRGEAIPEAAAMDYVAGYALCLDMTARDVQEECKKKGLPWTLAKSFTSSCPVSAFVPKEKIPDPHALRLWLKVNGELRQEGKTSSMIFSIPYIISYVSKIITLEEGDLILTGTPKGVGPIKENDEIEAGIDGVVSMRFKVKRSEY
B2: Ndufa11_IPI:IPI00318645.6 (other, mouse, UniProt Q9D8B4 1-141, looked up)
chain: MVKRFFESYHEVPDGTQCHRKTYITTALGGICGIIGSAYRVSLNPADSTLEAVARVGRYTFTAAAIGAMFGLTTCVSAQVREKPDDPLNYFIGGCAGGLTLGARTHSYGTAAMGCVYMGTAAALFKIGKLEGWELFPTPKV
B3: Mrpl43_IPI:IPI00278781.1 (other, mouse, UniProt Q99N89 1-183, looked up)
chain: MTGRGTSSRFLTSVLHNGLGRYVQQLQRLSLSLSRDAPSSRGAREFVEREVTDFARRNPGVVVYVNPRPCAMPRIVAEYLNGAVREENVNSKSVEEIKSLVQKLADQSGLDVIRIRKPFHTDNPSIQGQWTPSPTNGLPSTGCGPENSGILLQLRCKHSKEPGALDRERDRIGSSFGFQAQAE
B4: Atp5f1_IPI:IPI00341282.2 (other, mouse, UniProt Q9CQQ7 43-256, looked up)
chain: PLPPLPEYGGKVRLGLIPEEFFQFLYPKTGVTGPYVLGTGLSLYFLSKEIYVITPETFSTISVVGLIVYVIKKYGASFGEFIDKLNEEKIAQLEEVKQSSMKQIQDAIDMEKAQQALVQKRHYLFDVQRNNIALALEVTYRERLHKAYKEVKNRLDYHISVQNMMRRKEEEHMIDWVEKHVVKSISVQQEKETIAKCIEDLKLLAKKAQAQPIM
B5: Mrps33_IPI:IPI00135214.1 (other, mouse, UniProt Q9D2R8 2-106, looked up)
chain: SPLSEYALRMSRLSARIFGEVARSTDSKSMKVVSLFSEQPLAKKKETYDWYPNHNTYFALMGNLRFLGLYRDEHQDFKDEQRRLKKLRGKGKPRKGEGKRATKKK
B6: Lyrm7_IPI:IPI00117832.1 (other, mouse, UniProt Q9DA03 1-104, looked up)
chain: MGQPAKVLQLFKTLHRTRQQVFKNDKRALEAARVKINEEFKKHKNETSPEKIKEMMKLGSDVELLLRTAVIQGIHTDHDTLQLVPRKDLLTENVPYCDAPTQKQ
B7: Rab2a_IPI:IPI00137227.1 (other, mouse, UniProt P53994 2-212, looked up)
chain: AYAYLFKYIIIGDTGVGKSCLLLQFTDKRFQPVHDLTIGVEFGARMITIDGKQIKLQIWDTAGQESFRSITRSYYRGAAGALLVYDITRRDTFNHLTTWLEDARQHSNSNMVIMLIGNKSDLESRREVKKEEGEAFAREHGLIFMETSAKTASNVEEAFINTAKEIYEKIQEGVFDINNEANGIKIGPQHAATNASHGSNQGGQQAGGGCC
B8: Tim23 (endogenous, mouse forebrain mitochondria) (other, UniProt Q9WTQ8 1-209, looked up)
chain: MEGGGRSSNKSTSGLAGFFGAGGAGYSNADLAGVPLTGMNPLSPYLNVDPRYLVQDTDEFILPTGANKTRGRFELAFFTIGGCCMTGAAFGAMNGLRLGLKETQSMAWSKPRNVQILNMVTRQGALWANTLGSLALLYSAFGVIIEKTRGAEDDLNTVAAGTMTGMLYKCTGGLRGIARGGLAGLTLTSLYALYNNWVHMKGSLLQQSL
notes: also called Timm23_IPI:IPI00123712.1; Tim23 subunit
B9: Cplx2_IPI:IPI00111501.1 (other, mouse, UniProt P84086 1-134, looked up)
chain: MDFVMKQALGGATKDMGKMLGGEEEKDPDAQKKEEERQEALRQQEEERKAKHARMEAEREKVRQQIRDKYGLKKKEEKEAEEKAALEQPCEGSLTRPKKAIPAGCGDEEEEEEESILDTVLKYLPGPLQDMFKK
B10: Fabp5_IPI:IPI00114162.3 (other, mouse, UniProt Q05816 2-135, looked up)
chain: ASLKDLEGKWRLMESHGFEEYMKELGVGLALRKMAAMAKPDCIITCDGNNITVKTESTVKTTVFSCNLGEKFDETTADGRKTETVCTFQDGALVQHQQWDGKESTITRKLKDGKMIVECVMNNATCTRVYEKVQ
B11: Cisd3_IPI:IPI00345740.4 (other, mouse, UniProt B1AR13 1-137, looked up)
chain: MGFRRLSFPTDFIFLFPNHICLPALSKPYQRREISSWLARWFPKDPAKPVVAQKTPIRLELVAGKTYRWCVCGRSKNQPFCDGSHFFQRTGLSPLKFKAQETRTVALCTCKATQRPPYCDGTHKSEQVQKAEVGSPL
B12: Rab5b_IPI:IPI00116563.2 (other, mouse, UniProt P61021 2-215, looked up)
chain: TSRSTARPNGQPQASKICQFKLVLLGESAVGKSSLVLRFVKGQFHEYQESTIGAAFLTQSVCLDDTTVKFEIWDTAGQERYHSLAPMYYRGAQAAIVVYDITNQETFARAKTWVKELQRQASPSIVIALAGNKADLANKRMVEYEEAQAYADDNSLLFMETSAKTAMNVNDLFLAIAKKLPKSEPQNLGGAAGRSRGVDLHEQSQQNKSQCCSN
B13: Synj2bp_IPI:IPI00109206.1 (other, mouse, UniProt Q9D6K5 1-145, looked up)
chain: MNGRVDYLVTEEEINLTRGPSGLGFNIVGGTDQQYVSNDSGIYVSRIKEDGAAAQDGRLQEGDKILSVNGQDLKNLLHQDAVDLFRNAGCAVSLRVQHRLPVQNGPIVHRGEGEPSGVPVAMVLLPVFALTMVAVWAFVRYRKQL
B14: Iscu_IPI:IPI00110578.1 (other, mouse, UniProt Q9D7P6 36-168, looked up)
chain: YHKKVVDHYENPRNVGSLDKTSKNVGTGLVGAPACGDVMKLQIQVDEKGKIVDARFKTFGCGSAIASSSLATEWVKGKTVEEALTIKNTDIAKELCLPPVKLHCSMLAEDAIKAALADYKLKQESKKEEPEKQ
B15: Hint2_IPI:IPI00133034.3 (other, mouse, UniProt Q9D0S9 18-163, looked up)
chain: LAAAGARGAQVRGNAGVSDGSEVAKAQKAAPGGASPTIFSRILDRSLPADILYEDQQCLVFRDVAPQAPVHFLVIPRKPIPRISQAEEDDQQLLGHLLLVAKKIAQAQGLKDGYRLVVNDGKMGAQSVYHLHIHVLGGRQLQWPPG
B16: Uqcrq_IPI:IPI00224210.5 (other, mouse, UniProt Q9CQ69 1-82, looked up)
chain: MGREFGNLARIRHVISYSLSPFEQRAFPSYFSKGIPNVLRRTRERILRVAPPFVVVYLIYTWGNQEFEQSKRKNPAMYENDK
B17: Rab15_IPI:IPI00170032.1 (other)
chain: MAKQYDVLFRLLLIGDSGVGKTCLLCRFTDNEFHSSHISTIGVDFKMKTIDVDGIKVRIQIWDTAGQERYQTITKQYYRRAQGIFLVYDISSERSYQHIMKWVSDVDEYAPEGVQKILIGNKADEEQKRQVGREQGQQLAKEYGMDFYETSACTNLNIKESFTRLTELVLQAHRKELDGLRTRASNELALAELEEDEGKPEGPANSSKTCWC
modifications: Natural C-terminal geranylgeranylation of the cysteines (CWC motif) in the endogenous protein is not carried by the letters.
B18: Lyrm4_IPI:IPI00169804.1 (other, mouse, UniProt Q8K215 1-91, looked up)
chain: MAASSRAQVLDLYRAMMRESKHFSAYNYRMYAVRRIRDAFRENKNVKDPVEIQALVNKAKRDLEIIRRQVHIGQLYSTDKLIIENQEKPRT
B19: Chchd4_IPI:IPI00124389.1 (other, mouse, UniProt Q8VEA4 1-139, looked up)
chain: MSYCRQEGKDRIIFVTKEDHETPSSAELVADDPNDPYEEHGLILPNGDINWNCPCLGGMASGPCGEQFKSAFSCFHYSTEDIKGSDCIDQFRAMQECMQKYPDLYPQDEEEEEEAKPVEPVEETADTKVSAAKEQGTSS
B20: Uqcrb_IPI:IPI00132347.1 (other, mouse, UniProt Q9D855 2-111, looked up)
chain: AGRSAVSASSKWLDGFRKWYYNAAGFNKLGLMRDDTLHETEDVKEAIRRLPEDLYNDRMLRIKRALDLTMRHQILPKDQWTKYEEDKFYLEPYLKEVIRERKEREEWAKK

For the test, the target named is T1, GST alone (UniProt P08515 1-218 = GST).
T1 construct: Negative control of the pull-downs; also called control GST
T1 sequence (P08515 whole entry): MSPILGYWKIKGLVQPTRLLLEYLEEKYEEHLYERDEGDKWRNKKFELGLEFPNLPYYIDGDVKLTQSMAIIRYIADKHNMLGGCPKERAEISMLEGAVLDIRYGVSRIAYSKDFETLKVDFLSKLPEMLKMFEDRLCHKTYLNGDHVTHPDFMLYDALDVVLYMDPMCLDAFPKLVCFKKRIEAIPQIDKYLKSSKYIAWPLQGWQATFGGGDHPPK
As to the kind of experiment: GST pull-down, LC-MS/MS. As for the experimental part:
Extracts were spun at 14,000 r.p.m. at 4° C., and clarified supernatants were incubated with glutathione 4B Sepharose beads (GE Healthcare) at 4° C. overnight. The glutathione beads were then washed extensively with ice-cold TNE buffer, and bound proteins were subjected to SDS-PAGE followed by immunoblotting analysis. For the samples subjected to mass spectrometry, glutathione bead-bound proteins from equal amounts (600 μg) of mitochondria were further washed with high stringency RIPA buffer following TNE buffer wash to decrease nonspecific interaction. Proteins were then eluted from the glutathione beads in SDS sample buffer, separated by SDS-PAGE and stained with Coomassie. Proteins in the gel were digested with trypsin and analyzed by mass spectrometry (LC-MS/MS) at the Taplin Biological Mass Spectrometry Facility (Harvard Medical School, Boston, Mass.).
Take B1: the binding result is recorded as “no binding”.
Turning to B2, the binding result is “no binding”.
Regarding B3, the binding result is on record as “no binding”.
In the case of B4 it was “no binding”; in that of B5, “no binding”.
B6: the binding result is “no binding”.
Consider B7, for which the binding result is on record as “no binding”.
With B8, the binding result is “no binding”.
Take B9: the binding result is “no binding”.
As to B10, the binding result is listed as “no binding”.
With B11, the binding result was “no binding”.
The value for B12 was “no binding”; that for B13 was “no binding”.
For the molecule B14, the binding result was “no binding”.
As to B15, the binding result is on record as “no binding”.
With B16, the binding result was “no binding”.
On to B17, for which the binding result is “no binding”.
The value for B18 was “no binding”; that for B19 was “no binding”.
Take B20: the binding result is reported as “no binding”.

The values are drawn from US20200085917A1 (UNIVERSITY OF PITTSBURGH OF THE COMMONWEALTH SYSTEM OF …, published 2020).
